From a protein production outcome set (Wang et al. 2014) come the findings set out here.

A short description of the data set: label from the status in PepcDB records.
“MEAFTFNTTELILLSATGVLLIIQLIYYLGLYNRIHTHNLAVGKDEVHFGRELPPLSVVICARNESENLRRNLPTILKQDYPDFEVIVINDGSTDESEDLLSALEEEYPNLYHSFTPDSARYISRKKLALTLGIKASKHDWLVFTEADCAPVSNQWLRRMARNFTSSTDIVLGYSGYERGKGWLHKRASFDSLFTSLRYLGFALAGKPYMGIGRNLAYRKELFFKVKGFSTHLNMQRGEDDLFINQVANENNTRVETSPDAVIRMQPVERYKDWKEEKVSYMATSRFYKGSQRWLLGLETGTRLLFYAACLVGIVFGILSFHWLVVGLSLLLWFVRYSVQAYVINKTAGEMGDNRSYYFTLPVFDIIRPLQTLKLKLYRLYRGKGDFMRR”: the protein production result is listed as “failed”.
For “YTVRLETEHAKEILSSDSPWASLEMFSFYGNYLKLVRTEYEGLRLSSGDTVFFLGSGPLPLTLIVFFRLYGVKSTGIEKDSFRANLSKKVLEKLGLSSVIKIVNGNHFSLSRKDLSLSPDTGVKALMIAAQAEPKKEIFEHLLEVMPIGGRISC”, the protein production result is “failed”.
Turning to “MTEGRVIDVDVSSEMESSFLEYAVSVIHSRALPDARDGLKPVQRRIVYQMGDMGLRPERGHVKSSRIVGDVMGKLHPHGDTAIYDALVRLSQSFIMRVPLVDGHGNFGSLDDGPAAPRYTEARLTSASMQMIAGLDEDVVDFVGNYDNTLTQPEVLPSAFPNLLINGTSGIAVGMATNMAPHNPGEVIAACCHLIRNPEAGLAELMRFIPGPDLPTGGRIIGLDGVREAYETGRGTFRTRATVSIENINARRKGIVVTELPYLVGPEKVVSKVKDAVGAKKLTGIASIDDYSDRKNGMRLVIGIKNGFNPEAVLAELYRQTPLEESFSMNNVCLVDGQPRTLGLRELLTVYLAHRIDVIRRRTVFQLRKAKDRLHLVEGLLIAILDIDEVIQLIRSSDDAATARTRLMDVFELSELQATYILDLQLRRLTKFSRIELEAERDELRKKIAYLEDLLADEAKLRELVATELEATAEAIGSPRRTVLIEGSMKELSAKGKKAQADLKIADAPCRVLLSTSGRIARTADASPLQRVGKRSSHDALRSEIVSTTQGKVGAVTSTGRLHMVDVVDLPALPPAATRPNVAGGVKIADYVTLEKNETVLGLIDLDREFVLGTAGGVVKRVSVAARPNKSEWEAITLKGKDSVIGVAQPKDIDESLAVFVTSNAQLLAFDASGLRAQGWNASGVAGMKVAADARALFFGMTPKAAKTDEEGDADTNIGTFAVVTVASGENFYGAPSSSIKVSDFSEYPTKGRATSGVRAHKFLKGETELSLAWVGDSPQAAAQAGGARTLPAEMSRRDATGSPLESKIDVIGTVPRLGDAEAALSGGGAGAGDSGAAGTDASGDGGAASGGGSSSSAATRTQGLATNFGELDLDLDGGPDLDEAKEEIARSKIDSDDAVIVSHDDDDDDDTALF”, the protein production result is listed as “failed”.
With “MRIEAAELRILELPLKFRFETSFGVQTKRTILLLRLFGEGLEGLGEGVMERLPLYREETVAGARYLLEEVFLPRVLGRDLPNPEALREALAPFRGNPMAKAVLEMAFFDLWAKALGRPLWQVLGGVRQAVEVGVSLGIQPSVEDTLRVVERHLEEGYRRIKLKIKPGWDYEVLKAVREAFPEATLTADANSAYSLANLAQLKRLDELRLDYIEQPLAYDDLLDHAKLQRELSTPICLDESLTGAEKARKAIELGAGRVFNVKPARLGGHGESLRVHALAESAGIPLWMGGMLEAGVGRAHNLHLATLPGFTKPGDVSSASRYWEEDIVEEALEAKDGLMPVPEGVGIGVHLKLPFVERVTLWQRYMSAS”, the protein production entry was “not failed”.
As for “MKMYEVKEFSSGKRKLEDYKSIIGEEEVSKIQEKAEKLKGRSFVHVNSTSFGGGVAEILHSLVPLLRSIGIEARWFVIEGPTEFFNVTKTFHNALQGNESLKLTEEMKELYLNVNRENSKFIDLSSFDYVLVHDPQPAALIEFYEKKSPWLWRCHIDLSSPNREFWEFLRRFVEKYDRYIFHLPEYVQPELDRNKAVIMPPSIDPLSEKNVELKQTEILRILERFDVDPEKPIITQVSRFDPWKGIFDVIEIYRKVKEKIPGVQLLLVGVMAHDDPEGWIYFEKTLRKIGEDYDVKVLTNLIGVHAREVNAFQRASDVILQMSIREGFGLTVTEAMWKGKPVIGRAVGGIKFQIVDGETGFLVRDANEAVEKVLYLLKHPEVSKEMGAKAKERVRKNFIITKHMERYLDILNSLGGLEHHHHHH”, the protein production entry was “not failed”.
Then “MKKRIIFFLILLVSFRIFADYKSEYDNLLSARNIKGIAALLPKWEKAEPKNPELYIAYFNYYLLKGQRSTQSLDTYKKDNTNSLALVDQKTNKIAGYLNNNIWYEKEDVDKALSYLEKGLKFGKNRLDMYFGRIHILGEIGEYEKQSQKIIEVLKLGKEINHKWLWSMNEVIPSSESEHFFLISINEYYKNWLQKSSPQTLNAAEKTGEAQLKLYPKNIEVHNYLSLAYIGQGKFKEALNVLLKADKLANEDYVIIFNMGRCYEALKQYDKAKECYLRMKKNPNKQVQDMADQKLSELKKLTK”, with “failed”; and “MAPSCLKMAHMRLLLTSFGHDHIRDFVRGTVAYIPDATRLFADSPEAAPFMETERNMLREHGLSIRELPISTSTPEEVDRVLGEVDGVYVAGGETFDLMWLLRSTGNDEVLIKHVRAGLPYIGTSAGAVIAGPSIEPISFLDSPDVAPNLSDYSGLGLCEHVVVPHAGGTIPQFPIDVFAETVRTYGAEFPLVLLKDGQALLIDDHGVHLILEHHHHHH”, with “not failed”; and “MEMVKSRSKVAIIGAGFVGASAAFTMALRQTANELVLIDVFKEKAIGEAMDINHGLPFMGQMSLYAGDYSDVKDCDVIVVTAGANRKPGETRLDLAKKNVMIAKEVTQNIMKYYNHGVILVVSNPVDIITYMIQKWSGLPVGKVIGSGTVLDSIRFRYLLSEKLGVDVKNVHGYIIGEHGDSQLPLWSCTHIAGKNINEYIDDPKCNFTEEDKKKIAEDVKTAGATIIKNKGATYYGIAVSINTIVETLLKNQNTIRTVGTVINGMYGIEDVAISLPSIVNSEGVQEVLQFNLTPEEEEALRFSAEQVKKVLNEVKNL”, with “not failed”.
In the case of “MERLSPVFATSKSSNMEVEHWMTSLKEVEKVLDSVEPKLTSSGTKWRVVAQHIKDICSDLNQIFNKEDPRYEVVQAGASAAHDFDVRYLDIHKVRTPHEPLEMRHSKGRKHGREIARLLEKIQKYRQEIEEIKKEYKETDKYRERYDHYKVKLDNLEKKNKDQERIERNQQKFKDAEAAYSSVCADLIQKMETVWKKHVSIFAEAASAVWSTQLQYAKALEAAANPIVPYLQQEEQEEEEEEEAASGTQGRVAEKAYHTNEEKVENSFQKNSAIPPSFRTASEQLTEQSKNINNAKNTSETSPAEDIEA”, the protein production result is “not failed”.
For the sequence “LLLEIGLEEMPARFLNESMVQLGDKLTGWLKEKNITHGEVKLFNTPRRLAVFVKDVAEKQDDIKEEAKGPAKKIALDADGNWTKAAIGFSKGQGANVEDLYIKEVKGIEYVFVQKFQAGQETKSLLPELSGLITSLHFPKNMRWGNEDLRYIRPIKWIVALFGQDVIPFSITNVESGRTTQGHRFLGHEVSIESPSAYEEQLKGQHVIADPSVRKQMIQSQLETMAAENNWSIPVDEDLLDEVNHLVEYPTALYGSFESEFLSIPEEVLVTTMKEHQRYFPVKDKNGDLLPHFITVRNGNSHAIENVARGNEKVLRARLSDASFFYKEDQKLNIDANVKKLENIVFHEELGSLADKVRRVTSIAEKLAVRLQADEDTLKHVKRAAEISKFDLVTHMIYEFPELQGIMGEKYARMLGEDEAVAAAVNEHYMPRSAGGETPSTFTGAVVAMADKLDTIASFFSIGVIPTGSQDPYGLPRQASGIVAILLDRNWGISFEELLTFVQTDKENELLDFFTQRLKYVLNAEQIRHDVIDAVLESSELE”, the protein production result is given as “not failed”.
For the sequence “MVDADGIYYLGPEGSFTHEAASLFKGKDLKAESTISLVFKRVYERESSIGIVPIENSLEGPVNETLDNLYNYDNIYVIGEIEKKIELVLAARSDNLSQIKRIYSHPHAFNEAREKLKELGFNEYIPVESTSKAAKIVSQDSEAAAICSNFAAKLYNLKVLITISSHNNYTRFIVLSKEMNSNGNKSMILFTVPHKPGALYKVLQVFYEYNINISMIYSRPLKSIPWQYYFYLEYEGGISNREFIEKLVKSTSVLKIKGSFSKLNNDPGF”, the protein production result was “failed”.
Then “MSHPFEGLPTTPTAEELVDKAFSRASRAGGAKDGNEAQQSMLMTASNIASDNMENVVTAWPTIDDLDPFYVELADAVVGEAYPADDDPGIDALKQHLSEISWAADKVVEIRQEYESRVARGDIDTARKLRKQAFARIADVVEEVEDDLAAISTAHNALKDIPDIRPNEPAIVVAGYPNVGKSSFVNRVTRADNEIASYPFTTTQIRVGHFEDQRIRYQLVDTPGLLDRPPEDRNEIESQAVSALEHLADAVLVFIDPSGECGYPLADQLELRNAIEARFDVPVLTIANKSDLSTDVEADHYMSVTEDDNVDGVLQAAIDAVDYELELPFDE”, with “failed”.
